# Patent US20220281980A1
# Where “and” joins values, the source holds several entries; their conditions need not be identical. Equal entries are not always repeated.
# Columns and labels:
# [1] = biological target: human MICA/B endogenously expressed on A2058 cells (MICA alleles *008/*018) (human) (UniProt Q29983); test: flow cytometry, tumor cells with endogenous MICA/B
# [2] = biological target: overexpressed cyno MICA/B (CHO clones #4 and #6); test: Scatchard analysis, 125I-MICA.36 on transduced CHO cells
# [3] = biological target: overexpressed human MICA*008 and MICB*005 on CHO cells; test: as above
EC50 [1],Kd [2],Kd [3],Binder
5.39 nM,,,"19G6 (antibody, V domains shown) VH: QVQLVESGGGVVQPGRSLRLSCAASGFTFSNYAMHWVRQAPGEGLEWVALIWYDGSNKFYGDSVKGRFTISRDNSKNTLYLQMNSLSAEDTAVYYCAREGSGHYWGQGTLVTVSS VL: AIQLTQSPSSLSASVGDRVTITCRASQGISSALAWYQQKPGKVPKSLIYDASSLESGVPSRFSGSGSGTDFTLTISSLQPEDFATYYCQQFNSYPITFGQGTRLEIK"
,5 to 11 nM,1 to 2 nM,"MICA.36 (antibody, V domains shown) VH: QVQLVESGGGVVQPGRSLRLSCAASGFTFSNYAMHWVRQAPGEGLEWVALIWYDGSNKFYGDSVKGRFTISRDNSKNTLYLQMNSLSAEDTAVYYCAREGSGHYWGQGTLVTVSS VL: AIQLTQSPSSLSASVGDRVTITCRASQGISSALAWYQQKPGKVPKSLIYDASSLESGVPSRFSGSGSGTDFTLTISSLQPEDFATYYCQQFNSYPITFGQGTRLEIK"
7.68 nM and 10.9 nM,,,"16A5 (antibody, V domains shown) VH: QVQLVESGGDVVQPGRSLRLSCAASGFTFSNYNIHWVRQAPGKGLEWVAVIRYDGINKYYADSVKGRFIISRDNSKNTLYLQMNSLRAEDTAVYYCASGPPDAFNIWGQGTMVTVSS VL: AIQLTQSPSSLSASVGDRVTITCRASQGISSALAWYQQKPGKVPKSLIYDASSLESGVPSRFSGSGSGTDFTLTISSLQPEDFATYYCQQFNSYPITFGQGTRLEIK"
